# Results as given in patent US8785185B2, “Differentiation of human embryonic stem cells” (Janssen Biotech, Inc., priority 2009, dated 2014).
# What was measured:
# Type in all cases: cell-based
# [1] = tested on: human embryonic stem cell line H1; assay: Real-time PCR of pancreatic markers at stage 3 day 4, Treatments 1-3 (Table 1); conditions: normalized to treatment 1, stage 3 treatment for four days
# Experimental: (§1) RPMI medium (Catalogue #22400, Invitrogen, Ca) supplemented with 2% BSA (Catalog #152401, MP Biomedical, Ohio), and 100 ng/ml activin A (R&D Systems, MN) plus 20 ng/ml WNT-3a (Catalog #1324-WN-002, R&D Systems, MN) plus 8 ng/ml of bFGF (Catalog #100-18B, PeproTech, NJ), for one day followed by treatment with RPMI media supplemented with 2% BSA and 100 ng/ml activin A plus 8 ng/ml of bFGF for an additional two days (Stage 1), then • b. DMEM/F12 (Catalogue #11330, Invitrogen, Ca)+2% BSA+50 ng/ml FGF7 for three days (Stage 2), then • c. Either Treatment 1: DMEM (high glucose)+1% B27 (Invitrogen, CA)+50 ng/ml FGF7, 0.25 μM Cyclopamine-KAAD, 2 μM retinoic acid (RA) and 100 ng/ml of Noggin for four days, or • d. Treatment 2: DMEM (high glucose)+1% B27 (Invitrogen, CA)+50 ng/ml FGF7, 0.25 μM Cyclopamine-KAAD, 2 μM retinoic acid (RA), 100 ng/ml of Noggin, 20 ng/ml activin A, for four days, or • e. Treatment 3: DMEM (high glucose)+1% B27 (Invitrogen, CA)+50 ng/ml FGF7, 0.25 μM Cyclopamine-KAAD, 2 μM retinoic acid (RA), 100 ng/ml of Noggin, 1 μM ALK5 inhibitor II, for four days.
# (§2) Cultures were sampled in duplicate on stage 3 day 4, and analyzed for expression of pancreatic markers using real-time PCR. Cultures also were fixed in parallel for immunofluorescence analysis.
# [2] = tested on: human embryonic stem cell line H1; assay: Immunofluorescence analysis of marker expression at stage 3 day 4 (FIG. 2, FIG. 3)
# Experimental: as §1, §2
# Treatment 1 (FGF7, retinoic acid and Noggin) induced the expression of NKX6.1 and NGN3.
# This is in contrast with PDX1 expressing cells generated by using DMEM/F12 supplemented with 1% B27 (Invitrogen, CA)+50 ng/ml FGF7, 0.25 μM Cyclopamine-KAAD, 2 μM retinoic acid (RA), 100 ng/ml of Noggin, 20 ng/ml activin A, wherein most PDX1 expressing cells also expressed CDX2.
# [3] = tested on: human embryonic stem cell line H1; assay: Real-time PCR of pancreatic markers at stage 3 day 4, activin A 20 or 50 ng/ml added at stage 3 (FIG. 1); conditions: 20 or 50 ng/ml activin A with FGF7, cyclopamine-KAAD, retinoic acid, Noggin
# Experimental: Briefly, cells of the human embryonic stem cell line H1 were cultured on MATRIGEL™ (1:30 dilution) coated dishes and RPMI medium supplemented with 2% BSA, 100 ng/ml activin A, 20 ng/ml WNT-3a, 8 ng/ml of bFGF for one day, followed by treatment with RPMI media supplemented with 2% BSA, 100 ng/ml activin A, 8 ng/ml of bFGF for an additional two days (Stage 1), then • a. DMEM/F12+2% BSA+50 ng/ml FGF7+0.25 μM Cyclopamine-KAAD for three days (Stage 2), then • b. DMEM-High glucose+1% B27+50 ng/ml FGF7+0.25 μM Cyclopamine-KAAD+2 μM Retinoic acid (RA)+100 ng/ml of Noggin+20 ng/ml activin A or 50 ng/ml activin A for four days (Stage 3).
# As a control, separate populations of cells were treated with DMEM High glucose, supplemented with 1% B27, 50 ng/ml FGF7, 0.25 μM Cyclopamine-KAAD, 2 μM retinoic acid (RA), and 100 ng/ml of Noggin.
# Cultures were sampled in duplicate on stage 3 day 4, and analyzed for expression of pancreatic markers using real-time PCR.
# A down-regulation of NGN3 expression was also observed in the cells at stage 3 day 4.
Molecule,relative expression level of NKX6.1 [1],relative expression level of PDX1 [1],expression of NGN3 / number of NGN3 expressing cells [2],NGN3 expression [3],"NKX6.1 expression ([3]; real-time PCR, versus cells receiving no activin A)",expression of NKX6.1 / number of NKX6.1 expressing cells [2]
Cc1cccc(-c2[nH]ncc2-c2ccc3ncccc3n2)n1 [ALK5 inhibitor II],decrease,No significant impact,significantly increased,,,
"activin A (protein, UniProt P08476 311-426, looked up, Inhibin beta A chain, a member of the TGF-β superfamily (R&D Systems)) Inhibin beta A chain: GLECDGKVNICCKKQFFVSFKDIGWNDWIIAPSGYHANYCEGECPSHIAGTSGSSLSFHSTVINHYRMRGHSPFANLKSCCVPTKLRPMSMLYYDDGQNIIKKDIQNMIVEECGCS",,,blocked,down-regulation,increase,significantly increased
